The results in this text go back to publication PMC6901573.

For test [1], the target named is Human hemoglobin A, reduced oxygenated form (OxyHb) (human) (UniProt P69905). As to the kind of experiment: SEC; tetramer to dimers; HiLoad 16/600 Superdex 75 in reaction buffer (Tris/HCl 100 mM, NaCl 150 mM, EDTA 1 mM, pH 8.0); Hb in the oxy and met forms injected at different concentrations.
The target in test [2] is Human hemoglobin A, oxidized form (methemoglobin, MetHb) (human) (UniProt P69905). Described as above.

A word on the Kd: it is a measure of binding affinity in units of concentration. “Human hemoglobin A, reduced oxygenated form (OxyHb), P69905 1-142; P68871 1-147 (complex; other documents disagree on this pair)” gave a dissociation constant (Kd) in test [1] of 250 nM. “Human hemoglobin A, oxidized form (methemoglobin, MetHb), P69905 1-142; P68871 1-147 (complex; other documents disagree on this pair)” showed a Kd in test [2] of 520 nM.
